# Test results from patent publication US20090124791A1.
# Key:
# [1] = target: human B7.1 antigen (CD80) on cells (human) (UniProt P33681); experiment: competition on B7.1 transfected CHO cells; competitor L307.4 (FIG. 8)
# [2] = target: B7.1/Ig fusion protein (human) (UniProt P33681); experiment: cell-based or functional assay
# [3] = target: human B7.1 antigen (CD80), form not stated (human) (UniProt P33681); experiment: surface plasmon resonance
# [4] = target: B7.1/Ig fusion protein (human) (UniProt P33681); experiment: competition of 125I-B7.1Ig binding to CD28 positive peripheral blood T lymphocytes
# Sequence of B7.1/Ig fusion protein (human) (P33681 35-242): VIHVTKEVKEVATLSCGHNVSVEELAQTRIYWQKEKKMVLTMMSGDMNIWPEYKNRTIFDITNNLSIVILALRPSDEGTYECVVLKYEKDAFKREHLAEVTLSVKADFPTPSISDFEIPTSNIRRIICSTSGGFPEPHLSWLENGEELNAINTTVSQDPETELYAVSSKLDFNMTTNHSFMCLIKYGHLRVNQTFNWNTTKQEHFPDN
# Sequence of human B7.1 antigen (CD80) on cells (human) (P33681 35-288): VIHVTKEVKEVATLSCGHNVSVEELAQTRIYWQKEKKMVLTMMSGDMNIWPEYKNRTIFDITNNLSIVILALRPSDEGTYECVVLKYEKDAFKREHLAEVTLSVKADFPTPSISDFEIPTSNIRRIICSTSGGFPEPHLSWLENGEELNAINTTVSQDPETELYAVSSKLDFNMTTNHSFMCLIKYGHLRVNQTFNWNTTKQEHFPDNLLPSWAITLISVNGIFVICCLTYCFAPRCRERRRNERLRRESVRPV
# Sequence of human B7.1 antigen (CD80), form not stated (human) (P33681 35-242 limits assumed): as the sequence (P33681 35-242) above
cross-reactivity (competition) with L307.4 [1],"concentration for equivalent blocking of IL-2 against CTLA-4Ig, beads anti-CD3/B7 8:1 [2]","inhibition of IL-2, CD4+ T cells with anti-CD3/B7-Ig beads (8:1) [2]",Kd [3],IC50 [4],Substance
50%,–,–,–,–,BB-1 murine anti-B7 antibody
–,10 fold,50 to 90%,4 nM,< 1 mg/L,primatized 16C10 (IDEC-114) (antibody)
